Measurements from FireProtDB (doi:10.1002/pro.164).

B1: I42A, Q6T418 (parent)
chain: MERKTFSFLFLLLLVLASDVAVERGEARTCMIKKEGWGKCLIDTTCAHSCKNRGYIGGNCKGMTRTCYCLVNC

Variants of: B1
Details: Vigna radiata; pH 7; 37 °C; GdnHCl; Fluorescence; Tris-HCl 10 mM; NaCl 100 mM; structure 1TI5; whole UniProt chain shown

Variant | denaturant midpoint (higher = more stable) [M]
I42A | 3.87
H48A | 4.33
S49A | 2.84
D43A | 2.96
N52A | 3.49
R53A | 2.76
G36A | 3.27
N59A | 2.64
T45A | 4.5
I32A | 2.93
K39A | 2.48
M31A | 3.66
C30A C73A | 2.69
V71A | 3.14
G57A | 3.26
K61A | 3.31

Variant | denaturant midpoint (higher = more stable) [M]
K33A | 2.57
M63A | 3.88
K51A | 2.81
K34A | 2.53
T66A | 3.32
T64A | 2.98
L70A | 4.69
R28A | 3.29
G38A | 4.66
I56A | 3.32
G62A | 3.44
Y68A | 3.73
Y55A | 3.1
T44A | 3.32
R65A | 2.97
